What all share (assay): Algicidal activity by cell count after 24 hr (Lugol staining)
What all share (format): cell-based

One test has as its system Chaetoceros cuvisetus. The following applies: for Algicidal activity (degree of inhibition): 50 μl of protein (100 μg/ml), after 24 hr. The procedure:
(§1) Organisms used as host for algicidal bacteria screen are Cochlodinium polykrikoides, Thalassiosira sp., Heterosigma akashiwo, Skeletonema costatum, Alexandrium sp., Gymnodium sp., Chaetoceros cuvisetus. Each algae cell was grown to log phase in F/2 broth (0.075 g NaNO3, 0.005 g NaH2PO4?H2O, 0.030 g Na2SiO3?9H2O, 1 ml F/2 trace metal solution, 1 ml F/2 vitamin solution and 1,000 ml aged seawater) [Stein, Handbook of phycological methods, Cambridge Univ. Press, 1973].
(§2) The cultured red tide organisms were diluted in F/2 broth to a final density of 0.05 (excitation wavelength=434 nm, emission wavelength=670 nm)on the fluorescent intensity using fluoro-spectrophotometer (Hitachi, Japan), and then 2.7 ml aliquots were dispensed into several test tubes (110 mm×10 mm) to prepare for the MPN (most probable number) method.
(§3) To measure algicidal activity of 10476—7 protein (SEQ ID NO:27), 50 μl of said protein (100 μg/ml) was added to the culture solutions of Cochlodinium polykrikoides, Thalassiosira sp., Heterosigma akashiwo, Skeletonema costatum, Alexandrium sp., Chaetoceros cuvisetus and Gymnodniium sp. which were prepared in Example 2. After 24 hr, said culture solutions were stained with 1% Lugol's iodine solution, and then the cell number was counted. Experimental groups with protease (experimental group 1 and 2) were compared with control group without protease in cell number and the degree of inhibition.
(§4) To check algicidal activity of proteins isolated Flavobacterium johnsoniae UW101 (ZP—01247095, SEQ ID NO: 4), Croceibacter atlanticus HTCC2559 (ZP—00951344, SEQ ID NO: 5), Leeuwenhoekiella blandensis MED217 (ZP—01059780, SEQ ID NO: 6) and Kordia algicida KAOT1—11562 (SEQ ID NO: 7), 50 μl of said protein (100 μg/ml) was added to the culture solutions of Cochlodinium polykrikoides, Thalassiosira sp., Heterosigma akashiwo, Skeletonema costatum, Alexandrium sp., Chaetoceros cuvisetus, and Gymnodium sp., which were prepared in Example 2. After 24 hr, said culture solutions were stained with 1% Lugol's iodine solution, and then the cell number was counted.
(§5) Experimental groups with protease (experimental group 1 and 2) were compared with control group without protease in cell number and the degree of inhibition.

The test system of the next test is Alexandrium sp. The following applies: for Algicidal activity (degree of inhibition): 50 μl of protein (100 μg/ml), after 24 hr. The procedure: as §1, §2, §3, §4, §5
The test system of the next test is Gymnodinium sp. The following applies: for Algicidal activity (degree of inhibition): 50 μl of protein (100 μg/ml), after 24 hr. On the procedure: as §1, §2, §3, §4, §5
Test [1] relates to Cochlodinium polykrikoides. The note with it: Cochlodinium polykrikoides; for Algicidal activity (degree of inhibition): 50 μl of protein (100 μg/ml), after 24 hr. The procedure: as §1, §2, §3, §4, §5
The test system of the next test is Thalassiosira sp. The note with it: for Algicidal activity (degree of inhibition): 50 μl of protein (100 μg/ml), after 24 hr. On the procedure:
as §1, §2, §3, §4, §5

The next test concerns Heterosigma akashiwo. The note with it: for Algicidal activity (degree of inhibition): 50 μl of protein (100 μg/ml), after 24 hr. On the procedure: as §1, §2, §3, §4, §5
A further test concerns Skeletonema costatum. The note with it: for Algicidal activity (degree of inhibition): 50 μl of protein (100 μg/ml), after 24 hr. On the procedure: as §1, §2, §3, §4, §5

B1: CRO: protein of Croceibacter atlanticus HTCC2559 with homology to KAOT1—10476 (protein, listed as Croceibacter atlanticus)
chain: MVFVSCEKDNDTNNAEVADTNEVTTGSLETLGVNTDLTPTNLDQATLDLIASKHLSPIGAQEELRYLPDGTSEKAIRIEGDIVMTKAELEELEFNGYSNENAQYSTNALVSPQTITIIGYTGGSQALTSSEQTALQWAVANYNRLNLNINFSLTFGTNYQNKDMVVYNNTVNNPSGAGGSAGFPSGGNPHKFVQIYGLSNYNTNVIEHVITHEIGHSVGFRHTDYFSRQSCGQNTNEGTAGVGANHIPGTPTGYDSTSIMLACFSSGEDGEFNSNDITALNYLY
modifications: Croceibacter atlanticus HTCC2559 (ZP_00951344)
Regarding B1, the “Algicidal activity (degree of inhibition)” value (in the test with Chaetoceros cuvisetus; in the test on Alexandrium sp.; in the test with Gymnodinium sp.; in test [1]; in the test with Thalassiosira sp.; with Heterosigma akashiwo) was “++++ (++++ means >75% the degree of inhibition)” throughout.

B2: FJ: protein of Flavobacterium johnsoniae UW101 with homology to KAOT1—10476 (protein, listed as Flavobacterium johnsoniae)
chain: MKKIKSILILSFTALVLLSCNKEDETVSSGQESLKVTPEVLEKLKSLSLNTSDVQVIQNTSLEGAVEDAFLVEGDIIITQAQLNKMDLHGGITTEQYRTTNLVSAPRTIKVVGLSGTGTTALTTNMRNGLQAAINRYNNLGLSINFTLTFSSSTSGANIVVRRQTGSAGGVAGFPSGGNPYNSVTLYSGLDSYSTNVNAHVAAHEIGHCIGLRHTDWFSRQSCGQNSNEGTAGVGAILIPGTPSGYDATSYMRACFGSNETGAFNANDITALNYLY
modifications: Flavobacterium johnsoniae UW101 (ZP_01247095)
As to B2, the “Algicidal activity (degree of inhibition)” value in the test on Chaetoceros cuvisetus is on record as “++++ (++++ means >75% the degree of inhibition)”; in the test on Alexandrium sp., “++++ (++++ means >75% the degree of inhibition)”; in the test on Gymnodinium sp., “++++ (++++ means >75% the degree of inhibition)”; in test [1], “++++ (++++ means >75% the degree of inhibition)”; in the test on Skeletonema costatum, “++ (++ means 25-50%)”; with Thalassiosira sp., “++++ (++++ means >75% the degree of inhibition)”. In addition, in the test with Heterosigma akashiwo, the “Algicidal activity (degree of inhibition)” value is on record as “++++ (++++ means >75% the degree of inhibition)”.

B3: KAOT1_10476: metallo protease of Kordia algicida OT1: signal peptide (1-27), processing peptide (28-98), mature region (99-278) (protein, listed as Kordia algicida)
chain: MKKIKNLTFALALGLGITMVSCSKDTAVVDEEQDTAIGIPQDVLQKAQSLHFNTFDMQEASFEKPNGKIEEGYMMEGDIFFTRDQLMNMELGGDITSKQYRTNNLVSPGVITIIGYTGNNSNGLTTKMQTGLRWAVDNYNALNLSISFQLTFGTDYQNKDMVVYQVQGGAGGSAGFPSGGNPYKWVKINSGMAPYSNNVHEHVIGHEIGHSIGFRHSDYFSRQSCGQNSNEGSAGVGAIHIPGTPTGWDPTSLMNACFSSSEDGEFNGNDITALNFLY
modifications: KAOT1_10476 of Kordia algicida OT-1
In the case of B3, the “Algicidal activity (in words)” value is on record as “showed algicidal activity” in the test with Chaetoceros cuvisetus; “showed algicidal activity” in the test with Alexandrium sp.; “showed algicidal activity” in the test with Gymnodinium sp.; “cell growth was inhibited effectively” in test [1]; “showed algicidal activity” in the test on Skeletonema costatum; “showed algicidal activity” with Thalassiosira sp.. The “Algicidal activity (in words)” value in the test on Heterosigma akashiwo was “showed algicidal activity”. In addition, the “Algicidal activity (degree of inhibition)” value is listed as “++++ (++++ means >75% the degree of inhibition)” with Chaetoceros cuvisetus; “++++ (++++ means >75% the degree of inhibition)” in the test on Alexandrium sp.; “++++ (++++ means >75% the degree of inhibition)” in the test with Gymnodinium sp.; “++++ (++++ means >75% the degree of inhibition)” in test [1]; “+ (+ means <25%)” with Skeletonema costatum; “++++ (++++ means >75% the degree of inhibition)” with Thalassiosira sp.. The “Algicidal activity (degree of inhibition)” value in the test on Heterosigma akashiwo is “++++ (++++ means >75% the degree of inhibition)”.

B4: KAOT1_11562: protein of Kordia algicida with high homology to KAOT1—10476 (protein, listed as Kordia algicida)
chain: MKRNFKIQMLYVLLTMLLLAGCQNDTEEELVEEATTAVERVDVKWLAPDDHPVVQLLYSRGYERGTIYETDEHFLAPPDLLYSKDINDYDLSDNGSNAEQAYNTGKLVSLNRMRINVFLDNSIGTDLQTQSVNAMNELNGINNCALFFVRVFNANQAQITIRSDFGAESNNVLGRAGFPSNGRPFDTVTLNVDRLDDFGADIRRNTIIHELGHCVGLRHTDWQANRERSAVNIPGTSANDTGSIMWHTINGGTPFTNGDLTAFRALFPRALRIDVVNEIDDYDYSGEIYVLDNVFVDVFTDGSYSTQTTLNRNVNVSYRINVQEYNHTSGTYYYSRNRTLTAGNNRYYIDDEEEECSPYQGETCTRQDLEIRLATSIL
modifications: Kordia algicida KAOT1_11562
With B4, the “Algicidal activity (degree of inhibition)” value in the test with Chaetoceros cuvisetus is “++++ (++++ means >75% the degree of inhibition)”; in the test on Alexandrium sp., “++++ (++++ means >75% the degree of inhibition)”; in the test with Gymnodinium sp., “++++ (++++ means >75% the degree of inhibition)”; in test [1] it was “++++ (++++ means >75% the degree of inhibition)”; in the test with Skeletonema costatum it was “+ (+ means <25%)”; with Thalassiosira sp., “++++ (++++ means >75% the degree of inhibition)”. Further, the “Algicidal activity (degree of inhibition)” value in the test with Heterosigma akashiwo is on record as “++++ (++++ means >75% the degree of inhibition)”.

B5: MED: protein of Leeuwenhoekiella blandensis MED217 with homology to KAOT1—10476 (protein, listed as Leeuwenhoekiella blandensis)
chain: MTSCSEDAEQTTLPEAQPTSNLEVSSEIIQQVEDLGMNANYVRWDDFYFPDGSSEPRLFLEEDVVVTPEQLSSMSANVEESKSGKGDSKQYRTSALVSQGRTISIIGYTGGSQALSQKERTALQWAVANYNRLSGVSISFNLTFGTDYQNKDMVVYNNTVNNPSGAGGSAGFPSNGLPYKFVQIYGLANYDTNVVEHVMTHEIGHSVGFRHTDWFSRQSCGQNVYEGGDANHVSGTPTGYDSTSIMLACFSANEDGEFNANDITALNNMY
modifications: Leeuwenhoekiella blandensis MED217 (ZP_01059780)
As to B5, the “Algicidal activity (degree of inhibition)” value (in the test with Chaetoceros cuvisetus; in the test with Alexandrium sp.; in the test on Gymnodinium sp.; in test [1]; in the test on Skeletonema costatum; with Thalassiosira sp.) was “++++ (++++ means >75% the degree of inhibition)” throughout. Also, the “Algicidal activity (degree of inhibition)” value with Heterosigma akashiwo is recorded as “++++ (++++ means >75% the degree of inhibition)”.

The values above are taken from patent US20100272689A1, “Protease Having Algicidal Activity, Gene Encoding the Same and Algicidal Formulation Comprising the Same” (KOREA OCEAN RESEARCH & DEVELOPMENT INSTITUTE, priority 2007, published 2010).
